Measured values: PMC11065870, “The complete assembly of human LAT1-4F2hc complex provides insights into its regulation, function and localisation” (Nature Communications, 2024)

T1: 4F2 cell-surface antigen heavy chain (4F2hc, SLC3A2), fully glycosylated (human, UniProt P08195-1 1-630, four highly branched, sialylated N-glycans at Asn365, Asn381, Asn424 and Asn506 (9 to 16 sialic acid residues); one phosphorylation site (residue not given))
T1 construct: 4F2 cell-surface antigen heavy chain (4F2hc, SLC3A2), human, full-length cDNA in pCAG; source: HEK293F, co-transfected with LAT1, purified (anti-Flag M2 resin, Ni-NTA, SEC) in digitonin
T1 sequence (looked up): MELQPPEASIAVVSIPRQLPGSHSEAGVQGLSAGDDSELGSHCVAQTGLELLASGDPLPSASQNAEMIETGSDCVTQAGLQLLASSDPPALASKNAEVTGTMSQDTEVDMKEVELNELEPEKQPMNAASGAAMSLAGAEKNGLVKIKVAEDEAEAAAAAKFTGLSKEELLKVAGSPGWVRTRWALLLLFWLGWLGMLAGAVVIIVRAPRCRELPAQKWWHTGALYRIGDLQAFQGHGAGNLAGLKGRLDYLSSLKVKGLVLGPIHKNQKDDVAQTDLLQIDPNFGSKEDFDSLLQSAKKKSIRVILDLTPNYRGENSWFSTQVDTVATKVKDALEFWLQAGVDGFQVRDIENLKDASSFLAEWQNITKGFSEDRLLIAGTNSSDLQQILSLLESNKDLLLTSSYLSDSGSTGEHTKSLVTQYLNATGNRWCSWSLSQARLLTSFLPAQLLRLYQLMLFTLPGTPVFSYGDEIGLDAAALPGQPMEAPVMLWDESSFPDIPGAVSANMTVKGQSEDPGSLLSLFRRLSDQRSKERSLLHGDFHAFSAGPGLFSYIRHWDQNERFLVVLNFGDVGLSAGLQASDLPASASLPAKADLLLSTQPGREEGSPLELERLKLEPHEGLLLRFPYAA

T2: 4F2hc, desialylated (neuraminidase-treated) (human, UniProt P08195-1 1-630, N-glycans at Asn365, Asn381, Asn424 and Asn506 without sialic acid (neuraminidase); fucosylation and branching retained)
T2 construct: 4F2 cell-surface antigen heavy chain (4F2hc, SLC3A2), human, full-length cDNA in pCAG; also called desialylated 4F2hc; source: HEK293F, co-transfected with LAT1, purified, then neuraminidase digestion
T2 sequence (looked up): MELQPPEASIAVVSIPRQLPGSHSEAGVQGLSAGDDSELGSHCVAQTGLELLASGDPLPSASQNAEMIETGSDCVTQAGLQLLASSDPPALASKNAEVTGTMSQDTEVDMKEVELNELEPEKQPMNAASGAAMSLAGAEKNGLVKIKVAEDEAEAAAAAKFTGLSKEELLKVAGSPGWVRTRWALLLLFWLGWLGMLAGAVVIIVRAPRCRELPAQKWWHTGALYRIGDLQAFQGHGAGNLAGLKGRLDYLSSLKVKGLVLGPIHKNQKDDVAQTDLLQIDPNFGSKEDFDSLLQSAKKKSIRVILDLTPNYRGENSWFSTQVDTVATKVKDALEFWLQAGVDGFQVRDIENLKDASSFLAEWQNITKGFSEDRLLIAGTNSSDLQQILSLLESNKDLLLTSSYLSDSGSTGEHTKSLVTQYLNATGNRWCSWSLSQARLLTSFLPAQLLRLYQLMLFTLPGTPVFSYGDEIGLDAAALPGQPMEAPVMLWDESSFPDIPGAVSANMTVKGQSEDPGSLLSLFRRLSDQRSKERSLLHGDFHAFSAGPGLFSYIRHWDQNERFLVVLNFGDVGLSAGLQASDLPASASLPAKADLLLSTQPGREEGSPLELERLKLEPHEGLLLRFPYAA


What was measured:
[1] = target: the molecule itself; test: native MS; LAT1 alone; sample and conditions not told in the text (Supplementary Fig. 12C)
[2] = target: T1, 4F2 cell-surface antigen heavy chain …; test: native MS; complex at about 4 µM in 200 mM ammonium acetate pH 7.0 with 2 mM OGNG, released from OGNG micelles, Q Exactive UHMR, positive mode; details: both partners purified
[3] = target: T2, 4F2hc, desialylated …; test: as above; details: both partners purified
[4] = target: the molecule itself; test: as above

binding result [2]	binding result [3]	Binder	stoichiometry N [1]	stoichiometry N [4]
binds	binds	L-type amino acid transporter 1 (LAT1, SLC7A5) (natural protein, phosphoserine at S35 (mono-phosphorylated proteoform, part of the population), L-type amino acid transporter 1 (LAT1, SLC7A5), human, full-length cDNA in pCAG; also called light chain; source: HEK293F, co-transfected with 4F2hc, purified (anti-Flag M2 resin, Ni-NTA, SEC) in digitonin) not shown	2	
		LAT1-4F2hc heterodimer, wild type, fully glycosylated (complex, phosphoserine at S35 (mono-phosphorylated proteoform, part of the population) | four highly branched, sialylated N-glycans at Asn365, Asn381, Asn424 and Asn506 (9 to 16 sialic acid residues); one phosphorylation site (residue not given), L-type amino acid transporter 1 (LAT1, SLC7A5), human, full-length cDNA in pCAG; 4F2 cell-surface antigen heavy chain (4F2hc, SLC3A2), human, full-length cDNA in pCAG; The two chains are joined by a disulfide bond; Two such heterodimers form the super-dimer (LAT1-4F2hc)2; also called LAT1-4F2hc complex; SLC7A5-SLC3A2; source: HEK293F, co-transfected, purified (anti-Flag M2 resin, Ni-NTA, SEC) in …) chain 1: not shown chain 2: MELQPPEASIAVVSIPRQLPGSHSEAGVQGLSAGDDSELGSHCVAQTGLELLASGDPLPSASQNAEMIETGSDCVTQAGLQLLASSDPPALASKNAEVTGTMSQDTEVDMKEVELNELEPEKQPMNAASGAAMSLAGAEKNGLVKIKVAEDEAEAAAAAKFTGLSKEELLKVAGSPGWVRTRWALLLLFWLGWLGMLAGAVVIIVRAPRCRELPAQKWWHTGALYRIGDLQAFQGHGAGNLAGLKGRLDYLSSLKVKGLVLGPIHKNQKDDVAQTDLLQIDPNFGSKEDFDSLLQSAKKKSIRVILDLTPNYRGENSWFSTQVDTVATKVKDALEFWLQAGVDGFQVRDIENLKDASSFLAEWQNITKGFSEDRLLIAGTNSSDLQQILSLLESNKDLLLTSSYLSDSGSTGEHTKSLVTQYLNATGNRWCSWSLSQARLLTSFLPAQLLRLYQLMLFTLPGTPVFSYGDEIGLDAAALPGQPMEAPVMLWDESSFPDIPGAVSANMTVKGQSEDPGSLLSLFRRLSDQRSKERSLLHGDFHAFSAGPGLFSYIRHWDQNERFLVVLNFGDVGLSAGLQASDLPASASLPAKADLLLSTQPGREEGSPLELERLKLEPHEGLLLRFPYAA		2
